Target: Alexa Fluor-AChR conjugate (acetylcholine receptor purified from Torpedo californica electric organs, labelled with Alexa Fluor 488 or 647) (Torpedo californica) (UniProt P02710)
Assay: flow cytometry, CD19+ B cells stained with Alexa-AChR

Percent of B cells that were AChR+ (lymph node, mean)	Substance
10.4%	B cells (CD19+ or B220+) from CFA+AChR-immunized C57BL/6 mice with EAMG (spleen, lymph node, peripheral blood) (cells without a defined receptor)
5.6%	B cells from unimmunized naive C57BL/6 mice (cells without a defined receptor)

Source: patent US8530245B2
